Patent publication US20230113734A1 (CELLTRION, published 2023)

Assays:
HCoV-HKU1 S1 = target: T1, HCoV-HKU1 S1 (HCoV-HKU1, UniProt Q5MQD0 13-760); assay: Octet binding specificity analysis (FIG. 10)
T1 construct: domain: S1
T1 sequence: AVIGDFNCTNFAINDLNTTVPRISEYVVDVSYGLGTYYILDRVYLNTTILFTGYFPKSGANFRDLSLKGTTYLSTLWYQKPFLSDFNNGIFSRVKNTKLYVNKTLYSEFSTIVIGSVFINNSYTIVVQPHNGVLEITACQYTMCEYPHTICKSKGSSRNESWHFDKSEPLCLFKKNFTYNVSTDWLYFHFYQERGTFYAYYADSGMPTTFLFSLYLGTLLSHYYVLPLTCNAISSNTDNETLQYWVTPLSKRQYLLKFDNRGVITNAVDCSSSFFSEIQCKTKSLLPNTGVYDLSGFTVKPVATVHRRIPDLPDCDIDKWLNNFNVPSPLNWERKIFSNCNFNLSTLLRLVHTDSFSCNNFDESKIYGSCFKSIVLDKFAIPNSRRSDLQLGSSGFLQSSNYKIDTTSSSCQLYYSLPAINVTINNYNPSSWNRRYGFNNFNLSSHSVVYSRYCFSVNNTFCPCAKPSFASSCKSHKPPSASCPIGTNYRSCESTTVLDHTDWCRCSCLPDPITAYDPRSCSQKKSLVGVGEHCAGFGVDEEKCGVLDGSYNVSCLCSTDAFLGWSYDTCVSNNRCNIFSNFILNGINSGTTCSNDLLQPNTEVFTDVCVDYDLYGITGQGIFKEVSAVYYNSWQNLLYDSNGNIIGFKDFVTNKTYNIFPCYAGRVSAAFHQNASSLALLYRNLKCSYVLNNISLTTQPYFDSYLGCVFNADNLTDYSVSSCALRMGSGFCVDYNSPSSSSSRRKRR

[1] = target: SARS-CoV-2 S protein (spike protein) (SARS-CoV-2, UniProt P0DTC2 16-1213); assay: ELISA, S proteins on plate

Binder | binding result (HCoV-HKU1 S1) | Binding ability [1]
No. 139 antibody (full IgG) (antibody, V domains shown, also called CT-P59) VH: QITLKESGPTLVKPTQTLTLTCSFSGFSLSTSGVGVGWIRQPPGKALEWLALIDWDDNKYHTTSLKTRLTISKDTSKNQVVLTMTNMDPVDTATYYCARIPGFLRYRNRYYYYGMDVWGQGTTVTVSS VL: ELVLTQPPSVSAAPGQKVTISCSGSSSNIGNNYVSWYQQLPGTAPKLLIYDNNKRPSGIPDRFSGSKSGTSATLGITGLQTGDEADYYCGTWDSSLSAGVFGGGTELTVL | no binding | –
No. 266 scFv-Fc antibody fragment (scFv, V domains shown) VH: EVQLVESGGGLVQPGGSLRLSCAASGFTVSSNYMTWVRQAPGKGLEWVSVIYSGGSTFYADSVKGRFTISRDNSKNTLYLQMNSLRAEDTAVYYCARDLVVYGMDVWGQGTTVTVSS VL: ELELTQPPSVSVAPGKTARITCGGNNIGSKSVHWYQQKPGQAPVLVIYYDSDRPSGIPERFSGSNSGNTATLTISRVEAGDEADYYCQVRDSSSDHPVFGGGTKVTVL | – | 0.8 relative to positive control antibody
No. 276 scFv-Fc antibody fragment (scFv, V domains shown) VH: QVQLVQSGGGLVQPGGSLRLSCAASGFTVSSNYMTWVRQAPGKGLEWVSVIYSGGSTFYADSVKGRFTISRDNSKNTLYLQMNSLRAEDTAVYYCARDLVVYGMDVWGQGTTVTVSS VL: ELELTQPPSASGAPGQRVTISCSGSSSNIGGSDVGWYQHLPGMAPRLLIYKSNQRPSGVPDRFSASKSGTSASLAISGLQSEDEGDYYCATWDDRLNWVFGGGTKVTVL | – | 1 relative to positive control antibody
No. 268 scFv-Fc antibody fragment (scFv, V domains shown) VH: QVQLVQSGGGVVQPGRSLRLSCAASGFTVSSNYMTWVRQAPGKGLEWVSVIYSGGSTFYADSVKGRFTISRDNSKNTLYLQMNSLRAEDTAVYYCARDLVVYGMDVWGQGTTVTVSS VL: ELELTQPPSVSGAPGQRVTISCTGSDSNIGAGYDVHWYQQLPGTAPKLLIYNNNNRPSGVPDRFSGSKSGTSASLAITGLQAEDEADYFCQSSDSGLTGWVFGGGTKLTVL | – | 1.09 relative to positive control antibody
